Assay results reported in the supplement of paper PMC9233669.
Fewer inactive variants are shown than the library holds.

What was measured:
biotinyl-Phe-oxazolone = assay: self-aminoacylation, catalytic enhancement (BFO) (fold over background); higher = more active; k-Seq, kA / k0A0; sequences stand for … in GGGAAUGGAUCCACAUCUACGAAUUC…UUCACUGCAGACUUGACGAAGCUG
How it was run: (§1)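 Mutagenized RNA pools with a 21-nt variable region (0.43 μM) reacted with each biotinyl-aminoacyl-oxazolone at 2–1250 μM. Reactions ran in 50 μL HEPES/NaCl/KCl/MgCl2/CaCl2 buffer with 5% acetonitrile, pH 6.9–7.0, for 90 minutes at room temperature. Streptavidin-captured RNA was quantified by triplicate qPCR and Illumina sequencing, and per-sequence fraction reacted was fit to a pseudo-first-order model with 1000 bootstraps. Catalytic enhancement is median kA divided by the uncatalyzed rate, the low-activity peak of a bimodal Gaussian fit.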

biotinyl-Trp-oxazolone = assay: self-aminoacylation, catalytic enhancement (BWO) (fold over background); higher = more active; k-Seq, kA / k0A0; sequences stand for … in GGGAAUGGAUCCACAUCUACGAAUUC…UUCACUGCAGACUUGACGAAGCUG
How it was run: as §1

biotinyl-Leu-oxazolone = assay: self-aminoacylation, catalytic enhancement (BLO) (fold over background); higher = more active; k-Seq, kA / k0A0; sequences stand for … in GGGAAUGGAUCCACAUCUACGAAUUC…UUCACUGCAGACUUGACGAAGCUG
How it was run: as §1

biotinyl-Ile-oxazolone = assay: self-aminoacylation, catalytic enhancement (BIO) (fold over background); higher = more active; k-Seq, kA / k0A0; sequences stand for … in GGGAAUGGAUCCACAUCUACGAAUUC…UUCACUGCAGACUUGACGAAGCUG
How it was run: as §1

biotinyl-Met-oxazolone = assay: self-aminoacylation, catalytic enhancement (BMO) (fold over background); higher = more active; k-Seq, kA / k0A0; sequences stand for … in GGGAAUGGAUCCACAUCUACGAAUUC…UUCACUGCAGACUUGACGAAGCUG
How it was run: as §1

biotinyl-Val-oxazolone = assay: self-aminoacylation, catalytic enhancement (BVO) (fold over background); higher = more active; k-Seq, kA / k0A0; sequences stand for … in GGGAAUGGAUCCACAUCUACGAAUUC…UUCACUGCAGACUUGACGAAGCUG
How it was run: as §1

Sequence	self-aminoacylation (biotinyl-Phe-oxazolone)	self-aminoacylation (biotinyl-Trp-oxazolone)	self-aminoacylation (biotinyl-Leu-oxazolone)	self-aminoacylation (biotinyl-Ile-oxazolone)	self-aminoacylation (biotinyl-Met-oxazolone)	self-aminoacylation (biotinyl-Val-oxazolone)
CUACCUCAAACAAUCGGUUUG [Fam1A.1 aminoacylation ribozyme variant]	2.48	1.56	0.715	0.904	0.938	1.16
CUACCUCAAACAAUCGUUCUG [Fam1A.1 aminoacylation ribozyme variant]	0.62	0.863	0.588	0.711	0.525	0.672
CUACCUCAACCAAUCGGUCUG [Fam1A.1 aminoacylation ribozyme variant]	1.08	0.886	0.671	0.766	0.811	0.891
CUACCUCUAACAAUCGGUCUG [Fam1A.1 aminoacylation ribozyme variant]	0.97	0.565	0.919	0.8	0.915	0.739
CUACGUCAAACAAUCGGUCAG [Fam1A.1 aminoacylation ribozyme variant]	0.761	0.909	1.12	0.855	0.917	0.797
CUACGUCAAACAAUCGUUCUG [Fam1A.1 aminoacylation ribozyme variant]	0.508	0.856	0.822	0.789	0.854	0.813
CUACGUCAAACAAUGGGUCUG [Fam1A.1 aminoacylation ribozyme variant]	2.25	1.18	1.62	1.38	1.22	1.35
CUACGUCAAACAGUCGGUCUG [Fam1A.1 aminoacylation ribozyme variant]	3.92	1.14	1.75	1.14	1.25	1.52
CUACGUCAUACAAUCGGUCUG [Fam1A.1 aminoacylation ribozyme variant]	1.1	0.994	1.27	1.1	1.1	1.09
CUACUACAAACAACCGGUCUG [Fam1A.1 aminoacylation ribozyme variant]	1.12	0.954	0.845	1.19	0.601	1.14
CUACUACAAACAAGCGGUCUG [Fam1A.1 aminoacylation ribozyme variant]	0.606	0.883	1.25	1.11	1.1	1.2
CUACUACAAACAAUAGGUCUG [Fam1A.1 aminoacylation ribozyme variant]	0.827	0.456	0.718	0.826	0.635	0.94
CUACUACAAACAAUCCGUCUG [Fam1A.1 aminoacylation ribozyme variant]	0.545	0.855	0.68	0.717	0.728	0.832
CUACUACAAACAAUCGGUCUC [Fam1A.1 aminoacylation ribozyme variant]	1.05	0.673	0.418	0.647	0.53	0.59
CUACUACAAACAAUGGGUCUG [Fam1A.1 aminoacylation ribozyme variant]	0.955	1.69	1.15	1.07	1.37	1.14
CUACUACAAACUAUCGGUCUG [Fam1A.1 aminoacylation ribozyme variant]	0.752	0.717	0.713	0.869	0.949	0.839
CUACUCCAAACAAACGGUCUG [Fam1A.1 aminoacylation ribozyme variant]	1.09	0.918	0.71	0.816	0.531	0.981
CUACUCCAAACAAUCGAUCUG [Fam1A.1 aminoacylation ribozyme variant]	0.831	0.384	0.533	0.704	0.48	0.661
CUACUCCAAACAAUCGGACUG [Fam1A.1 aminoacylation ribozyme variant]	1.13	0.909	0.6	0.74	0.762	0.711
CUACUCCAAACAAUUGGUCUG [Fam1A.1 aminoacylation ribozyme variant]	0.67	0.642	1.02	1.13	1.09	1.03
CUACUCCAAACACUCGGUCUG [Fam1A.1 aminoacylation ribozyme variant]	1.15	1.52	1.03	1.12	0.93	0.962

Sequence	self-aminoacylation (biotinyl-Phe-oxazolone)	self-aminoacylation (biotinyl-Trp-oxazolone)	self-aminoacylation (biotinyl-Leu-oxazolone)	self-aminoacylation (biotinyl-Ile-oxazolone)	self-aminoacylation (biotinyl-Met-oxazolone)	self-aminoacylation (biotinyl-Val-oxazolone)
CUACUCCAAACCAUCGGUCUG [Fam1A.1 aminoacylation ribozyme variant]	1.16	1.01	1.03	1.1	0.961	0.971
CUACUCCAAAGAAUCGGUCUG [Fam1A.1 aminoacylation ribozyme variant]	0.807	0.807	1.03	0.927	0.731	0.764
CUACUCCAGACAAUCGGUCUG [Fam1A.1 aminoacylation ribozyme variant]	0.42	0.923	1.07	1	1.29	1.14
CUACUCCAUACAAUCGGUCUG [Fam1A.1 aminoacylation ribozyme variant]	0.859	0.549	0.628	0.833	0.719	0.751
CUACUCUAAACAAUCGGUCUG [Fam1A.1 aminoacylation ribozyme variant]	0.77	0.651	0.727	0.808	0.776	0.873
CUACUGAAAACAAUCGGUCUG [Fam1A.1 aminoacylation ribozyme variant]	0.542	0.78	0.708	0.84	0.735	0.706
CUACUGCCAACAAUCGGUCUG [Fam1A.1 aminoacylation ribozyme variant]	0.775	0.531	0.64	0.744	0.773	0.744
CUACUUAAAACAAUCGGUCUU [Fam1A.1 aminoacylation ribozyme variant]	0.533	0.524	0.617	0.742	0.799	0.706
CUACUUAAAACAAUCGGUUUG [Fam1A.1 aminoacylation ribozyme variant]	0.655	0.596	0.621	0.672	0.718	0.627
CUACUUAAAACAGUCGGUCUG [Fam1A.1 aminoacylation ribozyme variant]	0.624	0.454	1.05	0.799	0.742	0.78
CUACUUCAAAAAAGCGGUCUG [Fam1A.1 aminoacylation ribozyme variant]	0.451	0.633	0.966	0.999	1.02	0.801
CUACUUCAAAAAAUCCGUCUG [Fam1A.1 aminoacylation ribozyme variant]	1.02	0.897	0.682	0.834	0.854	0.945
CUACUUCAAAAAAUCGGUCUG [Fam1A.1 aminoacylation ribozyme variant]	11.8	7.37	0.92	1	0.758	0.795
CUACUUCAAAAAAUCGGUCUU [Fam1A.1 aminoacylation ribozyme variant]	5.8	4.11	1.05	1.02	0.966	0.807
CUACUUCAAAAAAUCUGUCUG [Fam1A.1 aminoacylation ribozyme variant]	1.36	0.797	0.61	0.84	0.589	0.699
CUACUUCAAACAAACAGUCUG [Fam1A.1 aminoacylation ribozyme variant]	0.8	0.534	0.671	0.864	0.54	0.728
CUACUUCAAACAAACGAUCUG [Fam1A.1 aminoacylation ribozyme variant]	0.828	0.336	0.569	0.693	0.728	0.779
CUACUUCAAACAAACGGACUG [Fam1A.1 aminoacylation ribozyme variant]	0.548	0.574	0.546	0.684	0.473	0.718
CUACUUCAAACAAACGGUCUU [Fam1A.1 aminoacylation ribozyme variant]	0.824	0.74	0.879	0.904	0.982	0.901
CUACUUCAAACAAACGGUUUG [Fam1A.1 aminoacylation ribozyme variant]	0.656	0.396	0.67	0.803	0.719	0.796
CUACUUCAAACAACCGGGCUG [Fam1A.1 aminoacylation ribozyme variant]	2.15	0.852	1.27	1.46	1.35	1.22
